Source: PMC3088358

Columns and labels:
[1] = target: Xenopus Crescent-Flag (Xenopus laevis); experiment: SPR
[2] = target: recombinant human BMP1 protein (human) (UniProt P13497); experiment: enzyme inhibition kinetics

Q: With “recombinant human BMP1 protein (from UniProt P13497 23-986) (enzyme)” as the substance, how does the Kd [1] read?
A: 11 nM

Q: How did the Ki [2] turn out when Xenopus Crescent-Flag (natural protein) was run?
A: 59 nM
